Patent US20240067748A1 (NONA BIOSCIENCES SUZHOU, published 2024)

Legend:
human Trop2 on cells = target: T1, human Trop2 on cells (human, UniProt P09758 27-323); assay: flow cytometry on 293T-human Trop2 cells
T1 construct: whole, on cells; also called hTrop2; 293T-human Trop2 cells
T1 sequence (looked up): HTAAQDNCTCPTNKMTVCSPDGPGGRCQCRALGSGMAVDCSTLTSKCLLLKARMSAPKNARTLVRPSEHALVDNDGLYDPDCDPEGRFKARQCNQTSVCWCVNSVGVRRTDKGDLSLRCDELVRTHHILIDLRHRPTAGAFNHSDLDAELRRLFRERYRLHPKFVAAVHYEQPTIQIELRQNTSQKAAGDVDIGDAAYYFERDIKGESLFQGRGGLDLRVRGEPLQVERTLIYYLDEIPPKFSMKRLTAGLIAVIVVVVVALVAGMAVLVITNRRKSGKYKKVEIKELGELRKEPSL
Method: The cell density was determined, and the cells were resuspended to 1×10⁶ cells/mL in PBS. 100 μL of cell suspension was taken from each well and added to a 96 well V-bottom plate. The 96-well V-bottom plate was centrifuged at 1000 rpm for 5 min and washed once with PBS+0.5% BSA (VWR, #0332-100G). […] After 1 h, the cells were washed twice with PBS+0.5% BSA. The cells were incubated with 100 μL of Alexa Fluor 488 goat anti-human IgG (Life technologies, 1:1000, #A-11013) at 4° C. for 1 h in the dark, and washed twice with PBS+0.5% BSA. The cells were resuspended in 200 μL of PBS+0.5% BSA. The fluorescence intensity of the cells was analyzed using a FACS verse flow cytometer. All procedures were performed on ice.

[1] = target: T2, human TROP2 protein (Sino Biological, #10428-H08H) (human, UniProt P09758 27-274); assay: BLI, Octet RED96, AHC sensor
T2 construct: bought protein; also called human Trop2 protein antigen (His tag); not shown: His tag
T2 sequence (looked up): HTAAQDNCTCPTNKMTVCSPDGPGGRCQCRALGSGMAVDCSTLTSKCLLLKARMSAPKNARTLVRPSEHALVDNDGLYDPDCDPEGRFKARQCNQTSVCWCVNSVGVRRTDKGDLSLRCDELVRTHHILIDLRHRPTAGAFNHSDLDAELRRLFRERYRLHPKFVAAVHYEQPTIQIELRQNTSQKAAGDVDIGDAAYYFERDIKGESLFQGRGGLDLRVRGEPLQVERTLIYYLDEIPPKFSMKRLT
Method: (§1) Specifically, a human TROP2 protein (Sino Biological, #10428-H08H) or a monkey Trop2 protein (Sino Biological, #90893-C08H) was diluted to 200 nM with a PBS buffer (pH 7.4) containing 0.1% (w/w) BSA and 0.02% (v/v) tween 20, and incubated with the AHC sensor respectively. 40 nM Trop2 antibody was incubated at 30° C. for 3 min with the AHC sensor loaded with the human Trop2 protein or monkey Trop2 protein respectively. The reaction mixture was incubated at 30° C. for another 5 min in a PBS buffer (pH 7.4) containing 0.1% (v/w) BSA and 0.02% (v/v) Tween 20. The association and dissociation signals between the Trop2 antibody and the human Trop2 protein or monkey Trop2 protein were recorded by Octet Red 96 in real time. The affinity and the association and dissociation constants were determined by Octet using software.

[2] = target: T3, monkey Trop2 protein (Sino Biological, #90893-C08H) (monkey, UniProt A0A2K5UE71 27-274); assay: BLI, Octet RED96, AHC sensor
T3 construct: bought protein; also called monkey Trop2 protein antigen (His tag)
T3 sequence: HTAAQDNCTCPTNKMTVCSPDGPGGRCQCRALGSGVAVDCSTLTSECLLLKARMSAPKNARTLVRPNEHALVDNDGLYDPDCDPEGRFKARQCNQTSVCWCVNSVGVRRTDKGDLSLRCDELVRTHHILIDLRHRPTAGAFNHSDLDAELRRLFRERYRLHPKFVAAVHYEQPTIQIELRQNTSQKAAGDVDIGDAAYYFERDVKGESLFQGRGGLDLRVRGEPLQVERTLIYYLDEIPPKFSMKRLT
Method: as §1

[3] = target: T3, monkey Trop2 protein (Sino Biological, …); assay: BLI, Octet RED96; ratio against KD for human Trop2 protein
Method: as §1

B1: PR001170 (antibody, human IgG1, kappa, V domains shown)
VH: QVQLQESGPGLVKPSETLSLTCAVSGYSINSGYFWAWIRQPPGMGLEWIGSIYHSGRTHYNPSLKSRVIISLDTSKNQFSLKLRSVTAADSAVYYCAREGYASGSYYWGQGTLVTVSS
VL: EIVMTQSPATLSVSPGERATLSCRSSQSVNSYLAWFQQKPGQAPRLLIYDSSTRATGIPARFSGSGSGTEFTLTISSLQSEDFAFYFCQQYENWPLTFGGGTKVEIKR
notes: fully human IgG1/kappa; also called antibody No. (29)
- EC50 (human Trop2 on cells): 0.352 nM
- Maximum (MFI) (human Trop2 on cells): 6960 MFI
- Top % (human Trop2 on cells): 107%
- Kd [1]: < 0.001 nM
- Response [1]: 0.368
- koff [1]: < 1e-07 s⁻¹
- kon [1]: 476000 M⁻¹ s⁻¹
- Kd [2]: < 0.001 nM
- Response [2]: 0.387
- koff [2]: < 1e-07 s⁻¹
- kon [2]: 307000 M⁻¹ s⁻¹

B2: PR001132 (antibody, human IgG1, kappa, V domains shown)
VH: QVELVESGGGVVQPGRSLRLSCGASGFTFSSYNMYWVRQAPGKGLEWVAGIWDDGNNKYYANSVKGRFTISRDNSKNTLYLQMNSLRTEDTALYYCAKDGWGSYGEYFQHWGQGTLVTVSS
VL: DIQMTQSPSSLSASVGERVTITCRASQNINSYLSWYQQKPGKAPKLLIYAASSLQNGVPSRFSGSGSGTDFTLTISSLQPEDFATYYCQQSFSTPPITFGQGTRLEIKR
notes: fully human IgG1/kappa; also called antibody No. (4)
- EC50 (human Trop2 on cells): 0.441 nM
- Maximum (MFI) (human Trop2 on cells): 6920 MFI
- Top % (human Trop2 on cells): 107%
- Kd [1]: < 0.001 nM
- Response [1]: 0.417
- fold lower KD than the reference antibody Tab (hRS7) [1]: ~10 fold
- koff [1]: < 1e-07 s⁻¹
- kon [1]: 121000 M⁻¹ s⁻¹
- Kd [2]: 0.164 nM
- Response [2]: 0.418
- koff [2]: 1.43e-05 s⁻¹
- kon [2]: 86900 M⁻¹ s⁻¹

B3: PR001171 (antibody, human IgG1, kappa, V domains shown)
VH: QVQLVESGGGVVQPGRSLRLSCAASGFTFSHYGMHWVRQAPGKGLEWVAVIWYDGIKKNYVESVKGRFTISRDNSKNTLNLQMNRLRAEDTAVYYCARDGGFGESNYYGLDVWGQGTTVTVSS
VL: DIQLTQSPSFLSASVGDRVTITCRASQGISSYLGWYQQKPGKAPKLLIYIASTLQSGVPSRFSGSGSGTEFTLTISSLQPEDFATYYCQQLNSYPYTFGQGTKLEIKR
notes: fully human IgG1/kappa; also called antibody No. (30)
- KD (monkey)/KD (human) [3]: 6.02
- EC50 (human Trop2 on cells): 0.997 nM
- Maximum (MFI) (human Trop2 on cells): 6600 MFI
- Top % (human Trop2 on cells): 102%
- Kd [1]: 0.0251 nM
- Response [1]: 0.326
- koff [1]: 3.74e-06 s⁻¹
- kon [1]: 149000 M⁻¹ s⁻¹
- Kd [2]: 0.151 nM
- Response [2]: 0.319
- koff [2]: 1.34e-05 s⁻¹
- kon [2]: 88300 M⁻¹ s⁻¹

B4: PR001159 (antibody, human IgG1, kappa, V domains shown)
VH: QVQLVESGGGVVQPGRSLRLSCEASGFTFSHYGMHWVRQAPGKGLEWVAVIWYDGIKTNYVESVKGRFTISRDNSKNTLNLQMNRLRAEDTAVYYCARDGGFGESNYYGLDVWGQGTTVTVSS
VL: DIQLTQSPSFLSASVGDRVTITCRASQGISSYLGWYQQKPGKAPKLLIYIASTLQSGVPSRFSGSGSGTEFTLTISSLQPEDFATYYCQQLNSYPYTFGQGTKLEIKR
notes: fully human IgG1/kappa; also called antibody No. (21)
- EC50 (human Trop2 on cells): 0.977 nM
- Maximum (MFI) (human Trop2 on cells): 6790 MFI
- Top % (human Trop2 on cells): 105%
- Kd [1]: < 0.001 nM
- Response [1]: 0.38
- fold lower KD than the reference antibody Tab (hRS7) [1]: ~10 fold
- koff [1]: < 1e-07 s⁻¹
- kon [1]: 176000 M⁻¹ s⁻¹
- Kd [2]: 0.307 nM
- Response [2]: 0.372
- koff [2]: 3.39e-05 s⁻¹
- kon [2]: 111000 M⁻¹ s⁻¹

B5: PR001150 (antibody, human IgG1, kappa, V domains shown)
VH: QVQLVESGGGVVQPEKSLRLSCAASGFTFSHYGMHWVRQVPGKGLEWVAVIWYDGIKRYYVESVKGRFTISRDNSKNTLYLQMNRLRAEDTAVYYCARDGGFGESNYYGLDVWGQGTTVTVSS
VL: DIQLTQSPSFLSASVGDRVTITCRASQGINSYLGWYQRKPGKAPKLLIYIASTLQSGVPSRFSGSGSGTEFTLTISSLQPEDFATYYCQQLNSYPYTFGQGTKLEIKR
notes: fully human IgG1/kappa; also called antibody No. (13)
- KD (monkey)/KD (human) [3]: 9.76
- EC50 (human Trop2 on cells): 0.589 nM
- Maximum (MFI) (human Trop2 on cells): 6570 MFI
- Top % (human Trop2 on cells): 101%
- Kd [1]: 0.0326 nM
- Response [1]: 0.382
- fold lower KD than the reference antibody Tab (hRS7) [1]: ~10 fold
- koff [1]: 5.25e-06 s⁻¹
- kon [1]: 161000 M⁻¹ s⁻¹
- Kd [2]: 0.319 nM
- Response [2]: 0.344
- koff [2]: 3.41e-05 s⁻¹
- kon [2]: 107000 M⁻¹ s⁻¹

B6: PR001151 (antibody, human IgG1, kappa, V domains shown)
VH: QVQLVESGGGVVQPGRSLRLSCAASGFTFSHYGMHWVRQAPGKGLEWVAVIWYDGIKKDYVESVKGRFTISRDNSKNTLYLQMNRLRAEDTAVYYCARDGGFGELNYYGLDVWGQGTTVTVSS
VL: DIQLTQSPSFLSASVGDRVTITCRASQGISSYLGWYQQKPGKAPKLLIYVASTLQSGVPSRFSGSGSGTEFTLTISSLQPEDFATYYCQQLNSYPYTFGQGTKLEIKR
notes: fully human IgG1/kappa; also called antibody No. (14)
- KD (monkey)/KD (human) [3]: 2.12
- EC50 (human Trop2 on cells): 1.61 nM
- Maximum (MFI) (human Trop2 on cells): 7510 MFI
- Top % (human Trop2 on cells): 116%
- Kd [1]: 1.12 nM
- Response [1]: 0.407
- koff [1]: 0.000127 s⁻¹
- kon [1]: 113000 M⁻¹ s⁻¹
- Kd [2]: 2.38 nM
- Response [2]: 0.351
- koff [2]: 0.00018 s⁻¹
- kon [2]: 75800 M⁻¹ s⁻¹

B7: PR001152 (antibody, human IgG1, kappa, V domains shown)
VH: QVQLVESGGAVVQPGRSLRLSCAASGFTFSHYGMHWVRQAPGKGLEWVAVIWYDGIKSYYVESVKGRFTISRDNSKNTLYLQMDRLRAEDTAVYYCARDGGFGESNYYGLDVWGQGTTVTVSS
VL: DIQLTQSPSFLSASVGDRVTITCRASQGINSYLGWYQRKPGKAPKLLIYIASTLQSGVPSRFSGSGSGTEFTLTISSLQPEDFATYYCQQLNSYPYTFGQGTKLEIKR
notes: fully human IgG1/kappa; also called antibody No. (15)
- KD (monkey)/KD (human) [3]: 7.57
- EC50 (human Trop2 on cells): 1.93 nM
- Maximum (MFI) (human Trop2 on cells): 7180 MFI
- Top % (human Trop2 on cells): 111%
- Kd [1]: 0.135 nM
- Response [1]: 0.348
- koff [1]: 2.08e-05 s⁻¹
- kon [1]: 154000 M⁻¹ s⁻¹
- Kd [2]: 1.02 nM
- Response [2]: 0.343
- koff [2]: 0.000105 s⁻¹
- kon [2]: 103000 M⁻¹ s⁻¹

B8: PR001138 (antibody, human IgG1, kappa, V domains shown)
VH: QVQLQESGPRLVKPSETLSLTCAVSGYSISSGYYWGWIRQSPGMGLEWIAYIYHDGSTYCNPSLKSRVTMSVDTSKNQFSLKLRSVTAADTAVYYCARDGAAAPFDYWGQGTLVTVSS
VL: DIQMTQSPSTLSASVGDRVTITCRASQSISNWLAWYQQKPGKAPKVLIYKASSLESGVPSRFSGSGSGTEFTLTINSLQPDDFATYYCQQYDSYSITFGQGTRLEIKR
notes: fully human IgG1/kappa; also called antibody No. (7)
- EC50 (human Trop2 on cells): 0.478 nM
- Maximum (MFI) (human Trop2 on cells): 6730 MFI
- Top % (human Trop2 on cells): 104%
- Kd [1]: < 0.001 nM
- Response [1]: 0.338
- fold lower KD than the reference antibody Tab (hRS7) [1]: ~10 fold
- koff [1]: < 1e-07 s⁻¹
- kon [1]: 148000 M⁻¹ s⁻¹
- Kd [2]: 0.409 nM
- Response [2]: 0.329
- koff [2]: 3.98e-05 s⁻¹
- kon [2]: 97400 M⁻¹ s⁻¹
